The record followed here is patent US20250163183A1 (COAGULANT THERAPEUTICS, published 2025).

The target of assay [1] is T1, human protein C (PC) zymogen (human, UniProt P04070 43-197; P04070 200-461).
T1 construct: Bought
Briefly: ELISA screen, PC-coated wells, OD450, n=2. On the technique in general: ELISA stands for enzyme-linked immunosorbent assay.

The target of assay [2] is T2, human APC-PPACK (active site-blocked APC) (human, UniProt P04070 43-461, active site bound by the tripeptide inhibitor Phe-Pro-Arg-chloromethylketone (PPACK)).
T2 construct: Bought (Haematologic Technologies)
Briefly: ELISA.

The target in assay [3] is T1, human protein C (PC) zymogen. The assay can be described thus: ELISA screen, PC-coated wells, OD450, n=2 [Continued].

T2 sequence (P04070 other isoform, or with tags, fused parts or gaps): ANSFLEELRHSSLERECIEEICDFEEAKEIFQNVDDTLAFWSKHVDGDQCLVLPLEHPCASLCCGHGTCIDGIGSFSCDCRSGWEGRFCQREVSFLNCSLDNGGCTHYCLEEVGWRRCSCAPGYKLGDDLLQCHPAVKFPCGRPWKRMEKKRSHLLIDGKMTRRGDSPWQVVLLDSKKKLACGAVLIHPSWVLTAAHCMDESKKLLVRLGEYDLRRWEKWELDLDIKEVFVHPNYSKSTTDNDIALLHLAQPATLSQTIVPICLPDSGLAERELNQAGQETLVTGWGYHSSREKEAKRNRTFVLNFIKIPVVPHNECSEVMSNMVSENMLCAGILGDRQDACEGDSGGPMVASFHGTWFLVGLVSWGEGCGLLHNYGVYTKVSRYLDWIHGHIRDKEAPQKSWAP
T1 sequence (P04070 43-197, chain 1 of 2): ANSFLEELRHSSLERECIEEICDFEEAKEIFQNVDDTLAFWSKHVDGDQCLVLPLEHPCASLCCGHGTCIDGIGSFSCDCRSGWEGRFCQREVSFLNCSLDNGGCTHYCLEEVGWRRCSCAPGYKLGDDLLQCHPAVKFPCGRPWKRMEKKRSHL
T1 sequence (P04070 200-461, chain 2 of 2): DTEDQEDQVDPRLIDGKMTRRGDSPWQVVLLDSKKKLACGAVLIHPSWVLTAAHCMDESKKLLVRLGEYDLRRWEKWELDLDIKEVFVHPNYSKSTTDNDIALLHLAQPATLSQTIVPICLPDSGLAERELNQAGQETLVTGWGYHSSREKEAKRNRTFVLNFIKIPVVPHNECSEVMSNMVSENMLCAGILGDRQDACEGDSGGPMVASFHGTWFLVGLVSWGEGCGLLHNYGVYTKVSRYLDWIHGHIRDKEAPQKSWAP

B1: SR16983-R3-P5-A06 (VHH)
VHH: QLQLVESGGGLVQAGGSLRLSCVASGTTFTIEDIGWYRLAPGKQRELVAIISGGNTNYADSVKGRFTISRDNAKNTVYLQMNSLKPEDTAVYYCNGRTKATVKWGRGTQVTVSS
Take B1: the binding result in assay [1] is on record as “no binding”; in assay [2] it was “binds”.

B2: SR16983-R2-P5-D01 (VHH)
VHH: QLQLVESGGGLVQAGGSLRLSCVASGTTFTIEDIGWYRLAPGKQRELVAIISGGNTNYADSVKGRFTISRDNTKNTVYLQMNSLKPEDTAVYYCNGRTKATVKWGRGTQVTVSS
For the molecule B2, the binding result is “binds” in assay [2] and “no binding” in assay [3].

B3: SR16983-R2P1C08 (VHH)
VHH: QVQLVESGGGLVQPGGSLRLSCAASGRTFSNYAMGWFRQAPGKERRFVAGISRDDTSTSYADSVKGRFTILRDRSKNTVDLQMNSLKPEDTAIYYCAAARGIYGEISRYTGDYDSWGQGTQVTVSS
Take B3: the binding result in assay [1] is reported as “no binding”; in assay [2], “binds”.

B4: SR16983-R2-P5-A12 (VHH)
VHH: QVQLVESGGGLVEAGGSLRLSCAASGRTFSSGALGWFRQAPGKEREFVATIRWSDERKQYSEFVKGRFTISRDSAKNTVYLQMNNLQPEDTAVYYCRSTVGNVLYWGQGTQVTVSS
As to B4, the binding result in assay [1] is listed as “no binding”; in assay [2] it was “binds”.

B5: SR16983-R2-P4-E03 (VHH)
VHH: QVQLVESGGGLVQAGGSLRLSCAASGRTFSSGALGWFRQAPGKEREFVATIRWSDERKQYSEFVKGRFTISRDSAKNTVYLQMNNLQPEDTAVYYCRSTVGNVLYWGQGTQVTVSS
On to B5, for which the binding result is “no binding” in assay [1] and “binds” in assay [2].

B6: SR16983-R2-P2-C04 (VHH)
VHH: QLQLVESGGGLVQAGGSLRLSCAASRTTFRINGVDWYRQVPGKQRELVATASSDGPTNYAESVKGRFTISRDNAKNTVYLQMNSLKPEDTAVYYCRIVLPSRIIWGQGTQVTVSS
Regarding B6, the binding result in assay [1] is “no binding”; in assay [2], “binds”.

B7: SR16983-R2-P2-D01 (VHH)
VHH: QLQLVESGGGLVQAGGSLRLSCVASGRTFSTYAMGWFRQAPGKEREFVGAIRWDGGSTNYANSVKGRFTISRDNAKNTVYLQVNSLKPEDTAVYYCAARASINYNYANWPYWGRGTQVTVSS
Regarding B7, the binding result in assay [2] was “binds”; in assay [3], “no binding”.

B8: SR16983-R3-P2-F07 (VHH)
VHH: QLQLVESGGGLVQAGGSLRLSCAASGTTFDMNSMGWYRQAPGFKRDLVATISIGGDTNYADSVKGRFTISRDNAKNTVYMQMNSLKPEDTAVYYCNAERIWPNRRSFWGQGTQVTVSS
For the molecule B8, the binding result is listed as “no binding” in assay [1] and “binds” in assay [2].

B9: SR16983-R2-P3-E05 (VHH)
VHH: EVQLVESGGGLVQAGGSLRLSCAASGLTASTYVMAWFRQAPGKERDFVSLIDWRGEPTYANSVKGRFTISRDNGKNTVFLQMNSLRPEDTALYYCAVRASPGYVASLYPYWGRGTQVTVSS
Consider B9, for which the binding result in assay [2] is recorded as “binds”; in assay [3], “no binding”.

B10: SR16983-R4-P1-A05 (VHH)
VHH: EVQLVESGGGLVQAGESLRLSCVLSGSTFGRNVITWYRQPPGKQREFIAMITTSGNTRYADSVKGRFTMSRDTAKNTAFLQMSNLKLEDTAVYYCWTAIAGQGEYWGQGTQVTVSS
For B10, the binding result in assay [1] was “no binding”; in assay [2] it was “binds”.

B11: SR16983-R2-P4-E06 (VHH)
VHH: QLQLVESGGDLVQAGGSLRLSCAASGFTLDDYAIGWFRQAPGKEREGVSCIASSDGSTYYADSVKGRFTISTDNAKNTVYLQMNSLKPEDTAVYYCARGGLLLPKPELFDSWGQGTQVTVSS
With B11, the binding result in assay [1] was “no binding”; in assay [2], “binds”.

B12: SR16983-R3-P5-F04 (VHH)
VHH: QLQLVESGGGLVQAGGSLRLSCAASGFTLDDYAIGWFRQAPGKEREGVSCIASSDGSTYYADSVKGRFTISTDNAKNTVYLQMNSLKPEDTAVYYCARGGLLLPKPELFEYWGQGTQVTVSS
As to B12, the results for the binding result in assay [1] and in assay [2] were “no binding” and “binds”, respectively.

B13: SR16983-R3-P3-A08 (VHH)
VHH: EVQLVESGGGLVQAGGSLRLSCAASGRTFVGTYVMGWFRQAPGKAREFVAASSRSTGNTVYLDSVKGRFTVSRDDAKNTLYLQMNSLKPEDTAVYYCAARASINYNAANWPYWGQGTQVTVSS
Take B13: the binding result in assay [1] was “no binding”; in assay [2], “binds”.

B14: SR16983-R2-P3-B05 (VHH)
VHH: QLQLVESGGGLVQPGGSLRLSCAASGRTVGSYVMGWFRQAPGKEREFLAANSRSTGNTVYADSVKGRFTISRDDAKNTLYLQMNSLKPEDTAVYYCATRASINYNYANWPYWGQGTQVTVSS
As to B14, the binding result was “no binding” in assay [1] and “binds” in assay [2].

B15: SR16983-R3-P5-F03 (VHH)
VHH: QVQLVESGGGLVQAGGSLRLSCAASGRTVGTYAIGWFRQAPGKEREFVAAFSRSTGNTVYPDSVKGRFTISRDDAKNTLYLQMNSLKPEDTAVYYCAARASINYNYANWPYWGQGTQVTVSS
As to B15, the binding result in assay [1] is “no binding”; in assay [2], “binds”.

B16: SR16983-R3-P4-E06 (VHH)
VHH: QLQLVESGGGLVQAGGSLRLSCAASGRTVGSYAVAWFRQAPGKERELLAASSRSTGNTVYADSVKGRFTIARDDAKNTLYLQMNSLKPEDTAVYYCAARASINYNYANWPYWGQGTQVTVSS
Take B16: the binding result in assay [1] is “no binding”; in assay [2], “binds”.

B17: SR16983-R3-P3-E04 (VHH)
VHH: QVQLVESGGGLVQAGGSLRLSCAASGRTFGSYVMGWFRQAPGKEREFVAAASRSTGNTVYPDSVKGRFTISRDDAKNTLYLQMNSLKPEDTAVYYCAARASINYNYANWPYWGQGTQVTVSS
On to B17, for which the binding result is “no binding” in assay [1] and “binds” in assay [2].

B18: SR16983-R4-P1-C05 (VHH)
VHH: QLQLVESGGGLVQAGGSLRLSCAASGRTFGSYVMGWFRQAPGKERAFVGAASRSTGTTVYLDSVKGRFTISRDDAKNTLYLQMNSLKPEDTAVYYCAARASINYNYANWPYWGQGTQVTVSS
Turning to B18, the binding result in assay [1] is “no binding”; in assay [2], “binds”.

B19: SR16983-R2-P4-D07 (VHH)
VHH: QVQLVESGGGLVQAGGSLRLSCAASGRTIGSYVMGWFRQAPGKEREFVVAFSRSTGHISYADSVKGRFTISRDDAKNTLYLQMNSLKPEDTAVYYCAARASINYNYANWPYWGQGTQVTVSS
With B19, the binding result in assay [1] was “no binding”; in assay [2] it was “binds”.

B20: SR16983-R3-P2-D01 (VHH)
VHH: EVQLVESGGGLVQAGGSLRLSCAASGFTFSTKWMYWVRQGPGKGLEWVSTIDASGGSTYYADSVKGRFTISRDNTEKKVYLQMNSLESADTAVYYCARSAGGQFRGRGTQVTVSS
Regarding B20, the figures for the binding result in assay [1] and in assay [2] were “no binding” and “binds”, respectively.

B21: SR16983-R3P2H10 (VHH)
VHH: QLQLVESGGGLVQPGGSLRLSCAASGFTFSTKWMYWVRQGPGKGLERVAAIDAGGGSTYYADSVKGRFTISRDNSENTVYLQMNSLESADTAVYYCARSEGGLFRGRGTQVTVSA
With B21, in assay [1], the binding result is listed as “no binding”.

B22: SR16983-R3-P5-C09 (VHH)
VHH: QLQLVESGGGLVQPGGSLRLSCAASGFTFSTKWMYWVRQGPGKGLERVAAIDASGGSTYYADSVKGRFTISRDNSKNTLYLQMNSLESADTAVYYCARSEGGQFRGRGTQVTVSS
As for B22, the binding result in assay [1] is recorded as “no binding”; in assay [2], “binds”.

B23: SR16983-R3-P3-H05 (VHH)
VHH: QVQLVESGGGLVQPGRSLRLSCAASGFTFSTKWMYWVRQGPGKGLERVAAIDAGGGSTYYADSVKGRFTISRDNSENTVYLQMNSLESADTAVYYCARSEGGLFRGRGTQVTVSA
Take B23: the binding result in assay [1] is listed as “no binding”; in assay [2] it was “binds”.

B24: SR16983-R2-P2-F02 (VHH)
VHH: QLQLVESGGGLVQAGGSLRLSCAASGTTFSFVYMGWYRQAPGNQRDLVARISSDGSTNYADSVKGRFTISRDNAKNTVYLQMNSLRPEDTARYYCFYNGHLNKWGQGTQVTVSS
With B24, the figures for the binding result in assay [1] and in assay [2] were “no binding” and “binds”, respectively.

B25: SR16983-R3-P2-G01 (VHH)
VHH: QLQLVESGGGLVQAGGSLRLSCAASGSTFSFNYMGWYRQAPGNQRDLVARISSGGITNYADSVKGRFTISGDNAKNTVYLQMNSLKPEDTARYYCFYNGYLNKWGRGTQVTVSS
As for B25, the figures for the binding result in assay [1] and in assay [2] were “no binding” and “binds”, respectively.

B26: SR16983-R2-P2-F07 (VHH)
VHH: QLQLVESGGGLVQAGGSLRLSCAASGSTFSFNYMGWYRQAPGNQRDLVARISSGGITNYADSVKGRFTISGDNAKDTVYLQMNSLKPEDTARYYCFYNGYLNKWGQGTQVTVSS
As for B26, the binding result in assay [1] was “no binding”; in assay [2] it was “binds”.

B27: SR16983-R2-P2-H04 (VHH)
VHH: QVQLVESGGGLVQAGGSLRLSCAASGTTFSFVYMGWFRQAPGNQRDLVARISSDGSTNYADSVKGRFTISGDNAKNTVYLQMNSLKPEDTARYFCFYNAHLNKWGQGTQVTVSS
As to B27, the binding result in assay [1] is listed as “no binding”; in assay [2], “binds”.
